These are literature values, as cited in paper PMC5650667.

A word on the Kd: it is a measure of binding affinity in units of concentration.

In one data set the target is RXFP2 (Homo sapiens) (UniProt Q8WXD0).
The next data set has as its target RXFP4 (Homo sapiens) (UniProt Q8TDU9).
Data set [1] deals with TRH1 receptor (Homo sapiens) (UniProt P34981). Put plainly: radioligand binding.
Sequence of UniProt P34981 (P34981 whole entry): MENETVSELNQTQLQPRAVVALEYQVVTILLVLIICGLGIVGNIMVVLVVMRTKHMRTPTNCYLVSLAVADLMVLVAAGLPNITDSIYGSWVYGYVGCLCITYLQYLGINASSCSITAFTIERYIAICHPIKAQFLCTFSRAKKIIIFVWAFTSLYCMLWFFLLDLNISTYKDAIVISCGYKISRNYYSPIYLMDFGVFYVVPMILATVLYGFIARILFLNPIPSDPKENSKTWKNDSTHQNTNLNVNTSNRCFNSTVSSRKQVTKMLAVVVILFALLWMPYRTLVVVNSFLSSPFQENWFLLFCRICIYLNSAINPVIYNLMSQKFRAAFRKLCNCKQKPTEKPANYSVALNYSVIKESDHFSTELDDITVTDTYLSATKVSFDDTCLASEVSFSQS

Sequence of UniProt Q8WXD0 (Q8WXD0 whole entry): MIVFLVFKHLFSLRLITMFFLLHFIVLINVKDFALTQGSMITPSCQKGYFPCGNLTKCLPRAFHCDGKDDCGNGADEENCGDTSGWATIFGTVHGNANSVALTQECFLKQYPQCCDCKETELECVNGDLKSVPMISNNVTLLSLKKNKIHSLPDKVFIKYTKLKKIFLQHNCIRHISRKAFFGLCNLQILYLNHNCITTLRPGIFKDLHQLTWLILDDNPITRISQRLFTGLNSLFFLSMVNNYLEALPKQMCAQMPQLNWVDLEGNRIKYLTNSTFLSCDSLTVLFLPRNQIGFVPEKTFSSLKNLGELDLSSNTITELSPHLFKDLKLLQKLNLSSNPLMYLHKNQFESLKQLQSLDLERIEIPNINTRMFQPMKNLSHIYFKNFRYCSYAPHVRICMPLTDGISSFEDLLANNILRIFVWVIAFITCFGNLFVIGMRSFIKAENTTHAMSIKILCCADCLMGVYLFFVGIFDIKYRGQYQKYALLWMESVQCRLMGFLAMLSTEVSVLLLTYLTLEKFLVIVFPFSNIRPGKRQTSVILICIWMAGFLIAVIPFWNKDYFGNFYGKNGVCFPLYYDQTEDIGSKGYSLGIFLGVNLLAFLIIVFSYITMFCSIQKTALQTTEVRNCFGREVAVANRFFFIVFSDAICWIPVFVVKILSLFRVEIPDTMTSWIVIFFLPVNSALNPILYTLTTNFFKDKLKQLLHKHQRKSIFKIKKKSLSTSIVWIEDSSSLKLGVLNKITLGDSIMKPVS
Sequence of UniProt Q8TDU9 (Q8TDU9 whole entry): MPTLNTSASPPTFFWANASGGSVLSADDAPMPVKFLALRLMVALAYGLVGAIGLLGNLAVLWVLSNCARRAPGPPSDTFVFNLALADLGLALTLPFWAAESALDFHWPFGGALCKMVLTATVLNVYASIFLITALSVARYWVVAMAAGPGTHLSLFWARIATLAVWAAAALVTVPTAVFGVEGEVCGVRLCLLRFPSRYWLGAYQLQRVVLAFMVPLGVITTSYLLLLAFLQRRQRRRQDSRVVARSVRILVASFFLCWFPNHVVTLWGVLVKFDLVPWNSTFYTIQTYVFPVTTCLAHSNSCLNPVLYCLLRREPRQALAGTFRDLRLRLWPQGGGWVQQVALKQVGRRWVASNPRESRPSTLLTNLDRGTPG

With INSL3 (from UniProt P51460), the Kd with RXFP2 (Homo sapiens) is 1 nM.

As to INSL5 (from UniProt Q9Y5Q6), the Kd in the data set with RXFP4 (Homo sapiens) was 5 nM.

Regarding TRH (from UniProt P20396), in data set [1], the Kd is 13 nM.
